# Assay results as given in patent US20090175974A1.
# Molecular target: TmCad1(EC12-cyto), partial Tenebrio molitor cadherin from extracellular domain 12 through the end of the cytoplasmic domain, expressed on insect cells (Tenebrio molitor)
# Assay: cell-based or functional assay
substance,measurement,value
Cry3Aa protoxin purified from sporulated cultures of Bacillus thuringiensis var. tenebrionis (from UniProt P0A379 1-644),"cytotoxicity (propidium iodide staining of GFP-positive transfected Hi5 cells, flow cytometry)",25%
same,"cytotoxicity (propidium iodide staining of GFP-positive transfected S2 cells, flow cytometry)",40%
